B1: TPR t1 (parent)
chain: GACCAAUCUGCCCUCAGAGCUCGAGAACAUCUUCGGAUGCAGAGGAGGCAGGCUUCGGUGGCGCGAUAGCGCCAACGUCCUCAACCUCCAAUGCAUCCCACCACAUGAUGAUGCCUGAAGAGCCUUGGUUUUUUG

Variants of: B1
Experiment: polymerase ribozyme fitness, log enrichment relative to wild type (log ratio); higher = more active; in vitro selection for triplet polymerase activity
Outline: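 A single round of triplicate in vitro selection, including frozen incubation at −7 °C, was applied to PCR-built, transcribed mutant libraries of each subunit of a heterodimeric triplet polymerase ribozyme. Illumina sequencing of input and output libraries retained genotypes with ≥10 input reads and ≥1 read per output. Fitness is the base-2 logarithm of genotype enrichment divided by wild-type enrichment, from inverse-variance-weighted replicate averages.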
With GACCAAUCUGCCCUCAGAGCUCGAGAACAUCUUCGGAUGCAGAGGAGGCAGGCUUCGGUGGCGCGAUAUCGCCAACGUCCUCAACCUCCAAUGCAUCCCUCCACAUGAUGAUGCCUGAAGAGCCUUGGUUUUUUG the “polymerase ribozyme fitness (log ratio)” value was -0.417.
With GACCAAUCUGCCCUCAGAGCUCGAGAACAUCUUCGGAUGCAGAGGAGGCAGGCUUCGGUGGCGCGAUAACGCCAACGUCCUCAACCUCCAAUGCAUCCCACCACAUGAUGAUACCUGAAGAGCCUUCGUUUUUUG the “polymerase ribozyme fitness (log ratio)” value was -3.93.
For GACCAAUCUGCCCUCAGAGCUCGAGAACAUCUUCGGAUGCAGAGGAGGCAGGCUUCGGUGGCGCGAUAACGCCAACGUCCUCAACCUCCAAUGCAUCCCACCACAUGAUGAUGCCUGAAGAGCCAUGGUUUUUUG, the “polymerase ribozyme fitness (log ratio)” value was -3.21.
With GACCAAUCUGCCCUCAGAGCUCGAGAACAUCUUCGGAUGCAGAGGAGGCAGGCUUCGGUGGCGCGAUACCGCCAACGUCCUCAACCUCCAAUGAAUCCCACCACAUGAUGAGGCCUGAAGAGCGUUGGUUUUUUG the “polymerase ribozyme fitness (log ratio)” value was -1.99.
For GACCAAUCUGCCCUCAGAGCUCGAGAACAUCUUCGGAUGCAGAGGAGGCAGGCUUCGGUGGCGCGAUACCGCCAACGUCCUCAACCUCCAAUGCAUUCCACCACAUGAUGAUGCCUGAAGAGCCUUGGUUUUUUG, the “polymerase ribozyme fitness (log ratio)” value was -2.66.
With GACCAAUCUGCCCUCAGAGCUCGAGAACAUCUUCGGAUGCAGAGGAGGCAGGCUUCGGUGGCGCGAUACCGCCAACGUCCUCAACCUCCAAUGCAUCCCACCACAAGAUGAUGCCUGAAUAGCCUUGUUUUUUUG the “polymerase ribozyme fitness (log ratio)” value was -2.78.
In the case of GACCAAUCUGCCCUCAGAGCUCGAGAACAUCUUCGGAUGCAGAGGAGGCAGGCUUCGGUGGCGCGAUACCGCCAACGUCCUCAACCUCCAAUGCAUCCCACCACAUGAUGAUCCCUGAAGAGCCUUGGUUUUUUG, the “polymerase ribozyme fitness (log ratio)” value is reported as -4.05.
In the case of GACCAAUCUGCCCUCAGAGCUCGAGAACAUCUUCGGAUGCAGAGGAGGCAGGCUUCGGUGGCGCGAUAACGCCAACGUCCUCAACCUCCAAUGCAUCCCACCACAUGAUGAUGCCUGAAGAGCAUUGGUUUUUUG, the “polymerase ribozyme fitness (log ratio)” value is reported as -0.616.
For GACCAAUCUGCCCUCAGAGCUCGAGAACAUCUUCGGAUGCAGAGGAGGCAGGCUUCGGUGGCGCGAUACCGCCAACGUCCUCAACCUCCAAUGCAUCCCAGCACAUGAUGAUGCCUGAAGAGCCUUGGUUUUUUG, the “polymerase ribozyme fitness (log ratio)” value was -3.84.
In the case of GACCAAUCUGCCCUCAGAGCUCGAGAACAUCUUCGGAUGCAGAGGAGGCAGGCUUCGGUGGCGCGAUAUCGCCAACGUCCUCAACCUCCAAUGCAUCCCACCACAUGAUGAUGCCUGAGGAGCCUUGGUUUUUUG, the “polymerase ribozyme fitness (log ratio)” value is reported as 1.7.
In the case of GACCAAUCUGCCCUCAGAGCUCGAGAACAUCUUCGGAUGCAGAGGAGGCAGGCUUCGGUGGCGCGAUACCGCCAACGUCCUCAACCUCCAAGGCAUCCCACCACAUGAUGAUGCCUGAACAGCCUUGGUUUUUUG, the “polymerase ribozyme fitness (log ratio)” value is reported as -3.22.
For GACCAAUCUGCCCUCAGAGCUCGAGAACAUCUUCGGAUGCAGAGGAGGCAGGCUUCGGUGGCGCGAUACCGCCAACGUCCUCAACCUCCAAAGCAUCCCACCACAUGAGGAUGCCUGAAGAGCCUUGGUUUUUUG, the “polymerase ribozyme fitness (log ratio)” value was -6.72.
With GACCAAUCUGCCCUCAGAGCUCGAGAACAUCUUCGGAUGCAGAGGAGGCAGGCUUCGGUGGCGCGAUACCGCCAACGUCCUCAACCUCGAAUGCAUCCCACCACAUGAUGAUGCCUGAAGAGACUUGGUUUUUUU the “polymerase ribozyme fitness (log ratio)” value was -4.06.
For GACCAAUCUGCCCUCAGAGCUCGAGAACAUCUUCGGAUGCAGAGGAGGCAGGCUUCGGUGGCGCGAUAACGCCAACGUCCUCAACCUCCAAUGCAUCCCACCACAUGAUGAUGCCUGAAGAGCCUUGCUUUUUUG, the “polymerase ribozyme fitness (log ratio)” value was -5.29.
In the case of GACCAAUCUGCCCUCAGAGCUCGAGAACAUCUUCGGAUGCAGAGGAGGCAGGCUUCGGUGGCGCGAUACCGCCAACGUCCUCAAUCUCCAAUGCAUCCCACCACAUGAUGAUGCCUGAAGAGCCUUGGUUUUUUG, the “polymerase ribozyme fitness (log ratio)” value is reported as -1.8.
For GACCAAUCUGCCCUCAGAGCUCGAGAACAUCUUCGGAUGCAGAGGAGGCAGGCUUCGGUGGCGCGAUACCGCCAACGUCCUCAAACUCCAAUGCAUCCCACCACAUGAUGAUGCCUGAAGAGCCUUGGUUUUUUG, the “polymerase ribozyme fitness (log ratio)” value was -2.84.
For GACCAAUCUGCCCUCAGAGCUCGAGAACAUCUUCGGAUGCAGAGGAGGCAGGCUUCGGUGGCGCGAUAACGCCAACGUCCUCAACCUCCAAUGCAUCCCACCACAUGAUGAUGCCUCAAGAGCCUUGGUUUUUUG, the “polymerase ribozyme fitness (log ratio)” value was -5.44.
For GACCAAUCUGCCCUCAGAGCUCGAGAACAUCUUCGGAUGCAGAGGAGGCAGGCUUCGGUGGCGCGAUAACGCCAACGUCCUCAACCUCCAAUGCAUCCCACCACAUGAUGAUGCCUAAAGAGCCUUGGUUUUUUG, the “polymerase ribozyme fitness (log ratio)” value was -3.78.
With GACCAAUCUGCCCUCAGAGCUCGAGAACAUCUUCGGAUGCAGAGGAGGCAGGCUUCGGUGGCGCGAUACCUCCAACGUCCUCAACCUCCAAUGCAUACCACCACAUGCAGAUGCCUGAAGAGCCUUGGUUUUUUG the “polymerase ribozyme fitness (log ratio)” value was -5.19.
With GACCAAUCUGCCCUCAGAGCUCGAGAACAUCUUCGGAUGCAGAGGAGGCAGGCUUCGGUGGCGCGAUACCGCCAACGCCCUCACCCUCCAAUGCAUCCCACCACAUGAUGAUGCCUGAAGAGCCUUGGUUUUUUG the “polymerase ribozyme fitness (log ratio)” value was -2.73.
With GACCAAUCUGCCCUCAGAGCUCGAGAACAUCUUCGGAUGCAGAGGAGGCAGGCUUCGGUGGCGCGAUAACGCCAACGUCCUCAACCUCCAAUGCAUCCCACCACAUGAUGAUGCCGGAAGAGCCUUGGUUUUUUG the “polymerase ribozyme fitness (log ratio)” value was -4.55.
For GACCAAUCUGCCCUCAGAGCUCGAGAACAUCUUCGGAUGCAGAGGAGGCAGGCUUCGGUGGCGCGAUACCGCCAACGUCCUCAACCUCCAAUGCAUCCCACCACAUGAUGAUGCCCGAACAGCCUUGGUUUUUUG, the “polymerase ribozyme fitness (log ratio)” value was -0.894.
With GACCAAUCUGCCCUCAGAGCUCGAGAACAUCUUCGGAUGCAGAGGAGGCAGGCUUCGGUGGCGCGAUACCGCCAACGUCCUCAACCUCCAAUGCAUCCCACCACAUGAUGAUGCCUGAAUAGGCUUGGUUUUUUG the “polymerase ribozyme fitness (log ratio)” value was -0.319.
With GACCAAUCUGCCCUCAGAGCUCGAGAACAUCUUCGGAUGCAGAGGAGGCAGGCUUCGGUGGCGCGAUAUCGCCAACGUCCUCAACCUCCAAUGCAUCCCACCACAUGAUGAUGCCUGAAGCGCCUUGGUUUUUUG the “polymerase ribozyme fitness (log ratio)” value was 2.82.
For GACCAAUCUGCCCUCAGAGCUCGAGAACAUCUUCGGAUGCAGAGGAGGCAGGCUUCGGUGGCGCGAUAUCGCCAACGUCCUCAACCUCCAAUGCAUCCCACCACAUGAUGAUGCCUGAAGGGCCUUGGUUUUUUG, the “polymerase ribozyme fitness (log ratio)” value was 2.47.
In the case of GACCAAUCUGCCCUCAGAGCUCGAGAACAUCUUCGGAUGCAGAGGAGGCAGGCUUCGGUGGCGCGAUACCGCCAACGUCCUCAACCUCCAAUGCAUCCCACCACAUGAUGAUGCCUGAAGAUCCUUGGUCUUUUG, the “polymerase ribozyme fitness (log ratio)” value is reported as -1.15.
In the case of GACCAAUCUGCCCUCAGAGCUCGAGAACAUCUUCGGAUGCAGAGGAGGCAGGCUUCGGUGGCGCGAUACCGCCAACGUCCUCAACCUCCAAUGCAUCCCACCACAUGAUGAUGCCUGAAUAGCCUUGGUUUUUUG, the “polymerase ribozyme fitness (log ratio)” value is reported as -0.245.
In the case of GACCAAUCUGCCCUCAGAGCUCGAGAACAUCUUCGGAUGCAGAGGAGGCAGGCUUCGGUGGCGCGAUACCGCCAACGUCCUCAACCUACAAUGCAUCCCACCACAUGAUGAUGCCUGAAGAGCCUUGGUUUUUUG, the “polymerase ribozyme fitness (log ratio)” value is reported as -2.15.
In the case of GACCAAUCUGCCCUCAGAGCUCGAGAACAUCUUCGGAUGCAGAGGAGGCAGGCUUCGGUGGCGCGAUACCGCCAACGUCCUCAACCUCCAAUGCAUCCCACCACAUGAUGAUGCCUGGAGAGCCUUGGUUUUUUG, the “polymerase ribozyme fitness (log ratio)” value is reported as -1.23.
For GACCAAUCUGCCCUCAGAGCUCGAGAACAUCUUCGGAUGCAGAGGAGGCAGGCUUCGGUGGCGCGAUACCGUCAACGUCCUCAACCUCCAAUGCAUCCCACCACAUGAUGAUGCCUGAAGAGCCUUGGUUUUUUG, the “polymerase ribozyme fitness (log ratio)” value was -0.189.
With GACCAAUCUGCCCUCAGAGCUCGAGAACAUCUUCGGAUGCAGAGGAGGCAGGCUUCGGUGGCGCGAUAACGCCAACGUCCUCAACCUCCAAUGCAUCCCACCACAUGAUGAUGCCUGAAGAUCCUUGGUUUUUUG the “polymerase ribozyme fitness (log ratio)” value was -2.62.
For GACCAAUCUGCCCUCAGAGCUCGAGAACAUCUUCGGAUGCAGAGGAGGCAGGCUUCGGUGGCGCGAUAACGCCAACGGCCUCAACCUCCAAUGCAUCCCACCACAUGAUGAUGCCUGUAGAGCCUUGGUUUUUUG, the “polymerase ribozyme fitness (log ratio)” value was -1.62.
With GACCAAUCUGCCCUCAGAGCUCGAGAACAUCUUCGGAUGCAGAGGAGGCAGGCUUCGGUGGCGCGAUACCGCCAACGUCCUCAACCUCCAAUGCAUCCCACCACAUGAUGAUGUCUGAAGAGCCUUGGUUUUUUG the “polymerase ribozyme fitness (log ratio)” value was -1.95.
With GACCAAUCUGCCCUCAGAGCUCGAGAACAUCUUCGGAUGCAGAGGAGGCAGGCUUCGGUGGCGCGAUAACGCCAACGUCCUCAACCUCCAAUUCAUCCCACCACAUGAUGGUGCCUGAAGAACCUUGGUUUUUUG the “polymerase ribozyme fitness (log ratio)” value was -5.44.
In the case of GACCAAUCUGCCCUCAGAGCUCGAGAACAUCUUCGGAUGCAGAGGAGGCAGGCUUCGGUGGCGCGAUAACGCCAACGUCCUCAACCUCCAAUACCUCCCACCACAUGAUGAUGCCUGAAGUGCCUUGGUUUUUUG, the “polymerase ribozyme fitness (log ratio)” value is reported as -3.33.
In the case of GACCAAUCUGCCCUCAGAGCUCGAGAACAUCUUCGGAUGCAGAGGAGGCAGGCUUCGGUGGCGCGAUAACGCCAACGUCCUCAACCUCCAAUGCAUCCCACCACAUGAUGAUGCCUUAAGAGCAUUGGUUUUUUG, the “polymerase ribozyme fitness (log ratio)” value is reported as -4.19.
For GACCAAUCUGCCCUCAGAGCUCGAGAACAUCUUCGGAUGCAGAGGAGGCAGGCUUCGGUGGCGCGAUAUAGCCAACGUCCUCAACCUCCAAUGCAUCCCACCACAUGAUGAUGCCUGAAGAGCCUUGGUUUUUUG, the “polymerase ribozyme fitness (log ratio)” value was -1.51.
In the case of GACCAAUCUGCCCUCAGAGCUCGAGAACAUCUUCGGAUGCAGAGGAGGCAGGCUUCGGUGGCGCGAUAACGCCAACGUCCUCAACCUCCAAUGCAUCCCACCACAUGAUCAUGCCUGAAGAGCCUUGGAUUUUUG, the “polymerase ribozyme fitness (log ratio)” value is reported as -7.59.
In the case of GACCAAUCUGCCCUCAGAGCUCGAGAACAUCUUCGGAUGCAGAGGAGGCAGGCUUCGGUGGCGCGAUAACGCCAACGUCCUCAACCUCCAAUGCAUCCCACCACAUGAUGAUGCCUGAAGAGCCUUCGUUUUUUG, the “polymerase ribozyme fitness (log ratio)” value is reported as -3.47.
With GACCAAUCUGCCCUCAGAGCUCGAGAACAUCUUCGGAUGCAGAGGAGGCAGGCUUCGGUGGCGCGAUAACGCCAACGCCCUCACCCUCCAAUGCAUCCCACCACAUGAUGAUGCCUGAAGAGCCUUGGUUUUUUG the “polymerase ribozyme fitness (log ratio)” value was -3.57.
For GACCAAUCUGCCCUCAGAGCUCGAGAACAUCUUCGGAUGCAGAGGAGGCAGGCUUCGGUGGCGCGAUACCGCCAACUUCCUCAACCACCAAUGCAUCCCACCACAUGAUGAUGCCUUAAGAGCCUUGGUUUUUUG, the “polymerase ribozyme fitness (log ratio)” value was -5.49.
In the case of GACCAAUCUGCCCUCAGAGCUCGAGAACAUCUUCGGAUGCAGAGGAGGCAGGCUUCGGUGGCGCGAUAACGCCAACGUCCUCAACCUCCAAUGCAUCCCACCACAUGAUGAUGCCUGAAGAGCCUUGGUUUCUUG, the “polymerase ribozyme fitness (log ratio)” value is reported as -2.86.

Reference: the RNAGym collection of RNA variant scans (doi:10.1073/pnas.2313332121)
